From article PMC3152347
Read-outs that look alike come from different tables or passages of the source.

B1: P3 (1st and 2nd Sp1 site) (dsDNA)
DNA 1: TGGGCGGGACTGGGGAGTGGCG
DNA 2: CGCCACTCCCCAGTCCCGCCCA
B2: P4 (2nd and 3rd Sp1 site) (dsDNA)
DNA 1: GGGAGGTGTGGCCTGGGCGGGAC
DNA 2: GTCCCGCCCAGGCCACACCTCCC
B3: P2 (NF-kB and 3rd Sp1 site, LTR -91 to -69) (dsDNA)
DNA 1: GGGACTTTCCAGGGAGGTGTGGC
DNA 2: GCCACACCTCCCTGGAAAGTCCC
B4: endogenous HSF1 of CEM-GFP cells, Q00613 1-529 (natural protein)
chain: MDLPVGPGAAGPSNVPAFLTKLWTLVSDPDTDALICWSPSGNSFHVFDQGQFAKEVLPKYFKHNNMASFVRQLNMYGFRKVVHIEQGGLVKPERDDTEFQHPCFLRGQEQLLENIKRKVTSVSTLKSEDIKIRQDSVTKLLTDVQLMKGKQECMDSKLLAMKHENEALWREVASLRQKHAQQQKVVNKLIQFLISLVQSNRILGVKRKIPLMLNDSGSAHSMPKYSRQFSLEHVHGSGPYSAPSPAYSSSSLYAPDAVASSGPIISDITELAPASPMASPGGSIDERPLSSSPLVRVKEEPPSPPQSPRVEEASPGRPSSVDTLLSPTALIDSILRESEPAPASVTALTDARGHTDTEGRPPSPPPTSTPEKCLSVACLDKNELSDHLDAMDSNLDNLQTMLSSHGFSVDTSALLDLFSPSVTVPDMSLPDLDSSLASIQELLSPQEPPRPPEAENSSPDSGKQLVHYTAQPLFLLDPGSVDTGSNDLPVLFELGEGSYFSEGDGFAEDPTISLLTGSEPPKAKDPTVS
B5: P1 (both NF-kB sites of LTR) (dsDNA)
DNA 1: GGGACTTTCCGCTGGGGACTTTCC
DNA 2: GGAAAGTCCCCAGCGGAAAGTCCC

What was measured:
[1] = target: T1, His-HSF1 (human, UniProt Q00613 1-529); test: EMSA
[2] = target: T1, His-HSF1; test: EMSA; remark: listed apart in the source
[3] = target: T2, endogenous HSF1 of CEM-GFP cells (human (endogenous in CEM-GFP)), Q00613; test: cross-linking; details: remark: other sources report otherwise
T2 chain: B4 chain

Binder | binding result [1] | other results
B1 | no binding | –
B2 | no binding | –
B3 | – | binding result [2]: binds
B4 | – | stoichiometry N [3]: 3
B5 | no binding | –
